Results: patent US6740739B1, “Substitutional variants of APO-2 ligand” (Genentech, Inc., priority 1998, dated 2004)

How the values were obtained:
T lymphocytes = assay: Apoptosis by FACS in peripheral blood T cells; type: cell-based, human; conditions: Apo-2 ligand 3 μg/ml, 3 days, mean ±SE
Protocol: Peripheral blood mononuclear cells (“PBMC&”) were isolated from the blood of human donors by Ficoll density gradient centrifugation using Lymphocyte Separation Medium (LSM®, Organon Teknika). An isolated population of T cells was prepared from the PBMC by removal of B cells through surface Ig binding to an anti-Ig column and removal of monocytes through Fc receptor binding to an Ig column (R & D Systems). An isolated population of B cells was prepared from the PBMC by complement-mediatedelimination of T cells reacted with the anti-CD3 antibody produced by the OKT3 myeloma (ATCC, CRL 8001) and of monocytes reacted with a monocyte-specific antibody produced by the 4F2C13 hybridoma (ATCC, HB 22). Additional monocyte removal was accomplished by adherence to plastic.
The freshly isolated peripheral blood B or T cells (1×10^6 cells/well) were cultured for 3 days in the presence of a media control or Apo-2 ligand (3 μg/ml, prepared as described in Example 3). For activation, B cells were treated simultaneously with lipopolysaccharide (“LPS”, 1 μg/ml), and T cells were treated with phorbol myristate acetate (“PMA”, 10 ng/ml) plus ionomycin (1 μg/ml) (Sigma). For interleukin-2 (“IL-2”) pretreatment, T cells were cultured for 3-5 days in the presence of IL-2 (50 U/ml) (Genzyme) before exposure to Apo-2 ligand. Apoptosis was determined using FACS analysis essentially as described above in Example 4. However, B cells were gated by anti-CD19/CD20 antibodies (Jackson Immunoresearch), and T cells were gated by anti-CD4/CD8 antibodies (Jackson lmmunoresearch). The results are shown in Table 2 below, representing means ±SE of independent experiments [B lymphocytes—9 experiments; T lymphocytes—8 experiments; T lymphocytes plus IL-2-5 experiments], in which 50,000 cells were analyzed per data point. Statistical analysis was performed using the student t-test. In Table 2, a=p<0.05 and b=p<0.02 relative respective control.

ME-180 = assay: Cell viability by crystal violet staining; type: cell-based, human
Protocol: (§1) The following human tumor cell lines were assayed: A549 (lung carcinoma, ATCC CCL 185); HCT116 (colon carcinoma, ATCC CCL 247); SW480 (colon adenocarcinoma, ATCC CCL 228); MDA231 (breast adenocarcinoma, ATCC HTB 26); HeLa (cervical carcinoma, ATCC CCL 22); ME-180 (cervical carcinoma, ATCC HTB 33); T24 (bladder carcinoma. ATCC HTB 4); SK-N-AS (neuroblastoma, White et al., Proc. Natl. Acad. Sci., 92:5520-5524 (1995)). The cells were plated at 2.5×10^5 cells/ml in 96 well plates and incubated overnight. The cells were cultured in the presence of 2-fold dilutions of Apo-2 ligand (ranging from 100 ng/ml to 0.01 ng/ml). In some of the cultures, a chemotherapeuticagent was also added for 24 hours-cyclohexamide (“CHX”) (50 μg/ml; Sigma Chemicals), Doxorubicin (10-100 μg/ml; Pharmacia), or 5-FU (6 mg/ml; Roche). After 24 hours of incubation, the cells were stained with 0.5% crystal-violetin 20% methanol. Cell viability was determined by eluting the dye from the stained cells with 0.1M sodium citrate (0.1M citric acid in 50% methanol), and measuring absorbance at 540 nm.

T24 = assay: Cell viability by crystal violet staining; type: cell-based, human
Protocol: as §1

[1] = tested on: HCT116 human colon carcinoma cells; assay: Tumor volume in nude mice, osmotic mini-pump infusion; type: in vivo; conditions: E. coli-expressed Apo-2 ligand (aa 91-281/92-281) 10 mg/kg each day by intraperitoneal osmotic mini-pump; over 3 days; vehicle no change; FIG. 15
Protocol: In the experiment, the nude mice were injected subcutaneously with HCT116 human colon carcinoma cells (ATCC CCL 247) (1×10^6 cells) on each side of the animal. The tumors were then allowed to grow to reach approximately 1 cm diameter (approximately 10 days). On Day 0, the tumor volume was measured with calipers. Volume was calculated as π/6×ab^2, where a=length and b=width. Then osmotic mini-pumps (available from Alza Corp., Model 1003) were implanted intraperitoncally into each animal. The mini-pumps were loaded with either (1) control vehicle (20 mM Tris pH 7.5, 8% Trehalose. 0.01% Tween-20) or (2) Apo-2 ligand. Five animals in each group received either the control vehicle or Apo-2 ligand. The mini-pumps were calibrated to deliver each day 10 mg/kg Apo-2 ligand (10 mg/ml×2 μl/hour) or 2 μl/hour control vehicle.
On Day 3, the tumor volume was again measured, and the animals were sacrificed. […] There was no change in tumor volume in the vehicle group, but a marked reduction in tumor size occurred in mice infused with the Apo-2L. The treatment with the Apo-2L shrunk the tumors by about 50% over 3 days.

B1: Apo-2L: purified soluble His10-tagged human Apo-2 ligand, residues 114-281, from baculovirus-infected Sf9 cells (Example 3); used in Examples 4-14 (protein)
chain: MGHHHHHHHHHHSSGHIDDDDKHMVRERGPQRVAAHITGTRGRSNTLSSPNSKNEKALGRKINSWESSRSGHSFLSNLHLRNGELVIHEKGFYYIYSQTYFRFQEEIKENTKNDKQMVQYIYKYTSYPDPILLMKSARNSCWSKDAEYGLYSIYQGGIFELKENDRIFVSVTNEHLIDMDHEASFFGAFLVG
% apoptolic cells (T lymphocytes; IL-2 pretreatment (50 U/ml, 3-5 days), control 13.7 ± 1.2, b=p<0.02): 34.5 ± 4.8^b %
% apoptolic cells (T lymphocytes; PMA/ionomycin, control 40.3 ± 4.4, a=p<0.05): 54.2 ± 3.3^a %
% apoptolic cells (T lymphocytes; treatment none, control 6.3 ± 0.6): 8.2 ± 0.8%
Apo-2L sensitivity ENHANCED BY Dox (ME-180; ME180, Doxorubicin 10-100 μg/ml, 24 hours): yes
Apo-2L sensitivity ENHANCED BY CHX (ME-180; ME180, cyclohexamide 50 μg/ml, 24 hours): yes
Apo-2L SENSITIVITY (ME-180; ME180 cervical carcinoma, p53 WT, 24 h): ++ (>70% death after 24 h with 100 ng/ml Apo-2L)
Apo-2L sensitivity ENHANCED BY Dox (T24; T24, Doxorubicin 10-100 μg/ml, 24 hours): yes
Apo-2L sensitivity ENHANCED BY CHX (T24; T24, cyclohexamide 50 μg/ml, 24 hours): yes
Apo-2L SENSITIVITY (T24; T24 bladder carcinoma, p53 mut, 24 h): +++ (>70% death after 24 h with 10 ng/ml Apo-2L)
shrinkage of tumors (change in tumor volume) [1]: about 50%
